The assay has as its target His-tagged recombinant amelogenin (wild-type) (mouse) (UniProt P63277). Kind of assay: SDS PAGE with anti-amelogenin Western blot; crude 3% acetic acid E. coli extract and nickel column fractions; non-reducing SDS loading buffer, heated at 90°C for 1.5 min, 12% resolving gel; blot with rabbit anti-amelogenin antibody. On the technique in general: A western blot detects proteins with antibodies after separation by electrophoresis.

As usually defined, the stoichiometry N is a count of units in the complex or per binding partner.

For the substance “His-tagged recombinant amelogenin (wild-type) (from UniProt P63277 17-210) (natural protein)”, the stoichiometry N worked out at 2.

The values above are taken from publication PMC5472695.
